Measurements: publication PMC3917317 (Cell, 2013)
The star is where a group is joined. FITC = O=C1OC2(c3ccc(O)cc3Oc3cc(O)ccc32)c2ccc(NC(=S)*)cc21; βAla = NCCC(=O)O

Tests used:
[1] = molecular target: T1, His-EcGlpG C104A+H254A (inactive mutant) (Escherichia coli, UniProt P09391 1-276, C104A | H254A); test: pull-down
T1 sequence (looked up): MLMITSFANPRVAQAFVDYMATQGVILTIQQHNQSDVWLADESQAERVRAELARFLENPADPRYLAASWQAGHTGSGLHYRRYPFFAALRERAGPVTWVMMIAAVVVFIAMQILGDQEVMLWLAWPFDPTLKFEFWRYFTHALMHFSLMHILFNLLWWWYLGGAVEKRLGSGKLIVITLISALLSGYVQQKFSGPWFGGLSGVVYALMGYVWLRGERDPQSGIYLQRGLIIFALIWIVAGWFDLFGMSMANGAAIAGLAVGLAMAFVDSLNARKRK

[2] = molecular target: HA-EcGlpG S201A+H254A (inactive mutant) (Escherichia coli, UniProt P09391 1-276, S201A | H254A); test: SEC

B1: FITC-TatA (Providencia stuartii TatA residues 1-33 of 97) (peptide)
chain: {FITC-βAla}-MESTIATAAFGSPWQLIIIALLIILIFGTKKLR-NH2
SMILES: CC[C@H](C)[C@H](NC(=O)[C@H](CC(C)C)NC(=O)[C@@H](NC(=O)[C@@H](NC(=O)[C@H](CC(C)C)NC(=O)[C@H](CC(C)C)NC(=O)[C@H](C)NC(=O)[C@@H](NC(=O)[C@@H](NC(=O)[C@@H](NC(=O)[C@H](CC(C)C)NC(=O)[C@H](CCC(N)=O)NC(=O)[C@H](Cc1c[nH]c2ccccc12)NC(=O)[C@@H]1CCCN1C(=O)[C@H](CO)NC(=O)CNC(=O)[C@H](Cc1ccccc1)NC(=O)[C@H](C)NC(=O)[C@H](C)NC(=O)[C@@H](NC(=O)[C@H](C)NC(=O)[C@@H](NC(=O)[C@@H](NC(=O)[C@H](CO)NC(=O)[C@H](CCC(=O)O)NC(=O)[C@H](CCSC)NC(=O)CCNC(=S)Nc1ccc2c(c1)C(=O)OC21c2ccc(O)cc2Oc2cc(O)ccc21)[C@@H](C)O)[C@@H](C)CC)[C@@H](C)O)[C@@H](C)CC)[C@@H](C)CC)[C@@H](C)CC)[C@@H](C)CC)[C@@H](C)CC)C(=O)N[C@@H](Cc1ccccc1)C(=O)NCC(=O)N[C@H](C(=O)N[C@@H](CCCCN)C(=O)N[C@@H](CCCCN)C(=O)N[C@@H](CC(C)C)C(=O)N[C@@H](CCCNC(=N)N)C(N)=O)[C@@H](C)O
[1]
  Kd: ≥ 1000 µM
[2]
  Kd: 191 ± 29.4 µM
